Results as given in patent US20210403579A1 (DELINIA, published 2021).
Changes are numbered by the printed parent chain.

T1: Human ST2 (human, UniProt Q01638 19-328, limits assumed)
T1 construct: also called human ST2 protein; Interleukin 1 receptor-like 1
T1 sequence (looked up): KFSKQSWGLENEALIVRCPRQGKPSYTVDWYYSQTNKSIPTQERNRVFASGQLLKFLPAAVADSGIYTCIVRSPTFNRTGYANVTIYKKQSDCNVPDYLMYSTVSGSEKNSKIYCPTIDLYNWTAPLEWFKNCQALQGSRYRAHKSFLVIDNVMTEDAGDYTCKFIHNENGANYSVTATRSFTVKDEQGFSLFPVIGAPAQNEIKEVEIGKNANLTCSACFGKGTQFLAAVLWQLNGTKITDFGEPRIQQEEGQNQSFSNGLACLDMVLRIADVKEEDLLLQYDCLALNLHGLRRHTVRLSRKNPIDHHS

B1: Human ST2 IgG1 Antibody 21 (antibody, V domains shown)
VH: QVQLVQSGAEVKKPGASVKVSCKASGYTFSNHYMHWVRQAPGQGLEWMGWVNPTSGNTGYAQKFQGRVTMTRDTSTSTVYMELSSLRSEDTAVYYCARDLGVTYFDLWGRGTLVTVSS
VL: DIQMTQSPSSLSASVGDRVTITCRASQGISSWLAWYQQKPGKAPKLLIYEASHLETGVPSRFSGSGSGTDFTLTISSLQPEDFATYYCLQDYNYPLTFGGGTKVEIKR
notes: IgG1; also called ST2 Antibody 21
B2: Human ST2 IgG1 Antibody 22 (antibody, V domains shown)
VH: EVQLLESGGGLVQPGGSLRLSCAASGFKFRTFWMNWVRQAPGKGLEWVSVISNGGDATHYADSVKGRFTISRDNSKNTLYLQMNSLRAEDTAVYYCARVDCSGGSCYLGYWGQGTLVTVSS
VL: DIQMTQSPSSLSASVGDRVTITCRASESIGRYLNWYQQKPGKAPKLLIYGTSNLESGVPSRFSGSGSGTDFTLTISSLQPEDFATYYCQQSYSTPPTFGQGTKVEIKR
notes: IgG1; also called ST2 Antibody 22
B3: Human ST2 IgG1 Antibody 23 (antibody, V domains shown)
VH: EVQLLESGGGLVKPGGSLRLSCAASGFTFSSYWMHWVRQAPGKGLEWVSSISSRSSYIYYADSVKGRFTISRDDSKNTLYLQMNSLKTEDTAVYYCAREGNGMDVWGQGTTVTVSS
VL: DIQMTQSPSSLSASVGDRVTITCQASQDIGSYLNWYQQKPGKAPKLLIYAASSLQSGVPSRFSGSGSGTDFTLTISSLQPEDFATYYCLQSYSTPFTFGGGTKVEIKR
notes: IgG1; also called ST2 Antibody 23
B4: Human ST2 IgG1 Antibody 24 (antibody, V domains shown)
VH: QVQLVQSGAEVKKPGSSVKVSCKASGGTFSSYAISWVRQAPGQGLEWMGGIIPIFGTANYAQKFQGRVTITADESTSTAYMELSSLRSEDTAVYYCAKTPLGRGYGLFDYWGQGTLVTVSS
VL: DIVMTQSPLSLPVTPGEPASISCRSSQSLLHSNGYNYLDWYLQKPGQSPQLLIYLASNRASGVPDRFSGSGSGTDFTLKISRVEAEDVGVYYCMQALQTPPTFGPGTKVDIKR
notes: IgG1; also called ST2 Antibody 24
B5: Human ST2 IgG1 Antibody 25 (antibody, V domains shown)
VH: QVQLVQSGAEVKKPGSSVKVSCKASGGTFSNYAISWVRQAPGQGLEWMGWISAYNGNTNYAQKFQGRVTMTRDTSTSTVYMELSSLRSEDTAVYYCARSTNALDYWGQGTLVTVSS
VL: DIQMTQSPSSLSASVGDRVTITCRASQGIRSNLDWYQQKPGKAPKLLISIVSNLGSGVPSRFSGSGSGTDFTLTISSLQPEDFATYYCLQHNSNPPTFGGGTKVEIKR
notes: IgG1; also called ST2 Antibody 25
B6: Human ST2 IgG1 Antibody 26 (antibody, V domains shown)
VH: QVQLVQSGAEVKKPGSSVKVSCKASGYTFSDYYMHWVRQAPGQGLEWMGGILPVFGTATYAQKFQGRVTITADESTSTAYMELSSLRSEDTAVYYCARGFGYFDYWGQGTLVTVSS
VL: not shown
notes: IgG1; also called ST2 Antibody 26
B7: Human ST2 IgG1 Antibody 27 (antibody, V domains shown)
VH: QVQLVQSGAEVKKPGASVKVSCKASGYTFTGQYMHWVRQAPGQGLEWMGIINPSGGSTSYAQKFQGRVTMTRDTSTSTVYMELSSLRSEDTAVYYCAGSYYPYYYYGMDVWGQGTTVTVSS
VL: B3 VL with Q24R, D28N, S31Y, Y32F, N34H, L89Q, T94P, F96L
notes: IgG1; also called ST2 Antibody 27
B8: Human ST2 IgG1 Antibody 28 (antibody, V domains shown)
VH: QVQLVQSGAEVKKPGSSVKVSCKASGGTFGNYGINWVRQAPGQGLEWMGGIIPVFGTTNYAQKFQGRVTITADESTSTAYMELSSLRSEDTAVYYCARGLRYYYGMDVWGQGTTVTVSS
VL: DIVMTQSPLSLPVTPGEPASISCRSSQSLLHSNGYNYLDWYLQKPGQSPQLLIYGASTLQSGVPDRFSGSGSGTDFTLKISRVEAEDVGVYYCMQALQNPLTFGGGTKVEIKR
notes: IgG1; also called ST2 Antibody 28
B9: Human ST2 IgG1 Antibody 29 (antibody, V domains shown)
VH: QVQLVQSGAEVKKPGASVKVSCKASGGTFTGYFIHWVRQAPGQGLEWMGWMNPNSGNTGYAQKFQGRVTMTRDTSTSTVYMELSSLRSEDTAMYYCAREGQGVVPVDYWGQGTLVTVSS
VL: B1 VL with G28S, E50D, S52T, H53N, G100Q, G101S
notes: IgG1; also called ST2 Antibody 29
B10: Human ST2 IgG1 Antibody 30 (antibody, V domains shown)
VH: QVQLVQSGAEVKKPGSSVKVSCKASGYTFTTYGITWVRQAPGQGLEWMGGIIPIFGTANYAQKFQGRVTITADESTSTAYMELSSLRSEDTAVYYCAKLSGSSGSWDYYYYYGMDVWGQGTLVTVSS
VL: B8 VL with G55A, T58N, N99T, L101I, G105Q, G106S, K108R, V109L
notes: IgG1; also called ST2 Antibody 30
B11: Human ST2 IgG1 Antibody 31 (antibody, V domains shown)
VH: QVQLVQSGAEVKKPGSSVKVSCKASGGTFSTYAFSWVRQAPGQGLEYMGGIIPMFGTANYAQKFQGRVTITADESTSTAYMELSSLRSEDTAVYYCAGERGYGSLDYWGQGTLVTVSS
VL: B3 VL with Q24R, D28G, Y32W, N34A, L89Q, S93T, T94F, F96Y, G100Q, V104L
notes: IgG1; also called ST2 Antibody 31
B12: Human ST2 IgG1 Antibody 32 (antibody, V domains shown)
VH: EVQLLESGGGLVQPGGSLRLSCAASGFTFSNSDMNWVRQAPGKGLEWVSFISSSSGYTYYADSVKGRFTISRDNSKNTLYLQMNSLRAEDTAVYYCARANNNWNFYFDYWGQGTLVTVSS
VL: DIQMTQSPSSLSASVGDRVTITCRASQSINNWLAWYQQKPGKAPKLLIYSASSLQSGVPSRFSGSGSGTDFTLTISSLQPEDFATYYCQQSYDTPITFGQGTKVEIKR
notes: IgG1; also called ST2 Antibody 32
B13: Human ST2 IgG1 Antibody 33 (antibody, V domains shown)
VH: QVQLVQSGAEVKKPGSSVKVSCKASGDTFDTYAISWVRQAPGQGLEWMGGIIPIFGTANYAQKFQGRVTITADESTSTAYMELSSLRSEDTAVYYCARSRGRGYSYGSGLFDYWGQGTLVTVSS
VL: DIVMTQSPLSLPVTPGEPASISCRSSESLLITNGFNYIDWYLQKPGQSPQLLIYLGSNRAAGVPDRFSGSGSGTDFTLKISRVEAEDVGVYYCMQALQTPITFGQGTKVEIKR
notes: IgG1; also called ST2 Antibody 33
B14: Human ST2 IgG1 Antibody 34 (antibody, V domains shown)
VH: QVQLVQSGAEVKKPGASVKVSCKASGQTFTDYAINWVRQAPGQGLEWMGWMNPNSGNTGYAQKFQGRVTMTRDTSTSTVYMELSSLRSEDTAVYYCARETLEQQLPFDYWGQGTLVTVSS
VL: B12 VL with N30S, N31S, S50A, S53T, S91Y, D93S, P95L, I96Y
notes: IgG1; also called ST2 Antibody 34
B15: Human ST2 IgG1 Antibody 35 (antibody, V domains shown)
VH: QVQLVQSGAEVKKPGASVKVSCKASAYTFTSYGISWLRQAPGQGLEWMGWINPNSGNTGYAHKFQGRVTMTRDTSTSTVYMELSSLRSEDTAVYYCARGGSGWPTWGQGTLVTVSS
VL: B3 VL with G30S, S31N, A50G, L89Q, S91A, Y92N, S93T, T94F, G100P, E105D
notes: IgG1; also called ST2 Antibody 35
B16: Human ST2 IgG1 Antibody 36 (antibody, V domains shown)
VH: QVQLVQSGAEVKKPGASVKVSCKASGYTFTSYGISWVRQAPGQGLEWMGWIDPNSGGTNYAQKFQGRVTMTRDTSTSTVYMELSSLRSEDTAVYYCARDDWFSGDLDYWGQGTLVTVSS
VL: B12 VL with S28G, N30D, N31S, S50A, S53K, S56G, S91G, D93S, E105D
notes: IgG1; also called ST2 Antibody 36
B17: Human ST2 IgG1 Antibody 37 (antibody, V domains shown)
VH: EVQLLESGGGLVQPGGSLRLSCAASGFTFTDAWMNWVRQAPGKGLEWVSTISVSVGVTYYADSVKGRFTISRDNSKNTLYLQMNSLRAEDTAVYYCATIGSMATIRKGATDAFDIWGQGTLVTVSS
VL: B3 VL with Q24R, D28R, G30N, S53T, L89Q, F96P
notes: IgG1; also called ST2 Antibody 37
B18: Human ST2 IgG1 Antibody 38 (antibody, V domains shown)
VH: QVQLVQSGAEVKKPGSSVKVSCKASGGTFSSYAISWVRQAPGQGLEWMGTIIPMFGIADYAQKFQGRVTITADESTSTAYMELSSLRSEDTAVYYCARSSRSSSWYNWYFDLWGRGTLVTVSS
VL: EIVMTQSPATLSVSPGERATLSCRASQSISSSYLAWYQQKPGQAPRLLIYGASTRATGIPARFSGSGSGTEFTLTISSLQSEDFAVYYCQQYYTTPWTFGQGTKVEIKR
notes: IgG1; also called ST2 Antibody 38
B19: Human ST2 IgG1 Antibody 39 (antibody, V domains shown)
VH: QVQLVQSGAEVKKPGSSVKVSCKASGYTFTSYYMQWVRQAPGQGLEWMGGIIPIFGTANYAQKFQGRVTITADESTSTAYMELSSLRSEDTAVYYCARARFGAVDYWGQGTLVTVSS
VL: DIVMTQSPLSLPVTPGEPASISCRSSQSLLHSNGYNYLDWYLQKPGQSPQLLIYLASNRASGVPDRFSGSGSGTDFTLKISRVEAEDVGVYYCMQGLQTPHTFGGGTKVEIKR
notes: IgG1; also called ST2 Antibody 39
B20: Human ST2 IgG1 Antibody 40 (antibody, V domains shown)
VH: QVQLVQSGAEVKKPGASVKVSCKASGYTFTSYYIHWVRQAPGQGLEWMGIINPSADTTTYAQQFQGRVTMTRDTSTSTVYMELSSLRSEDTAVYYCARTPGNYGGNSLGYYYYYGMDVWGQGTLVTVSS
VL: B12 VL with I29V, N30G, N31T, S50A, S53T, D93S, T94S, I96L, Q100P, E105D
notes: IgG1; also called ST2 Antibody 40

Target: T1, Human ST2
Test: SPR (Carterra), antibody immobilized, ST2 analyte
Protocol: Binding of the reformatted human ST2 antibodies to the human and mouse ST2 proteins was evaluated by surface plasmon resonance (SPR), using a high throughput antibody screening and characterization platform from Carterra (Salt Lake City, Utah).

| Binder | Kd | koff | kon |
| --- | --- | --- | --- |
| B1 | 805 nM | 0.017 s⁻¹ | 21000 M⁻¹ s⁻¹ |
| B2 | 90 nM | 0.048 s⁻¹ | 530000 M⁻¹ s⁻¹ |
| B3 | 688 nM | 0.1 s⁻¹ | 150000 M⁻¹ s⁻¹ |
| B4 | 1200 nM | 0.055 s⁻¹ | 45000 M⁻¹ s⁻¹ |
| B5 | 193 nM | 0.03 s⁻¹ | 150000 M⁻¹ s⁻¹ |
| B6 | 264 nM | 0.14 s⁻¹ | 530000 M⁻¹ s⁻¹ |
| B7 | 106 nM | 0.048 s⁻¹ | 450000 M⁻¹ s⁻¹ |
| B8 | 426 nM | 0.066 s⁻¹ | 160000 M⁻¹ s⁻¹ |
| B9 | 480 nM | 0.0065 s⁻¹ | 14000 M⁻¹ s⁻¹ |
| B10 | 155 nM | 0.029 s⁻¹ | 190000 M⁻¹ s⁻¹ |
| B11 | 274 nM | 0.12 s⁻¹ | 430000 M⁻¹ s⁻¹ |
| B12 | 252 nM | 0.061 s⁻¹ | 240000 M⁻¹ s⁻¹ |
| B13 | 529 nM | 0.13 s⁻¹ | 240000 M⁻¹ s⁻¹ |
| B14 | 109 nM | 0.0011 s⁻¹ | 10000 M⁻¹ s⁻¹ |
| B15 | 104 nM | 0.016 s⁻¹ | 160000 M⁻¹ s⁻¹ |
| B16 | 264 nM | 0.14 s⁻¹ | 510000 M⁻¹ s⁻¹ |
| B17 | 138 nM | 0.085 s⁻¹ | 620000 M⁻¹ s⁻¹ |
| B18 | 17 nM | 0.0053 s⁻¹ | 310000 M⁻¹ s⁻¹ |
| B19 | 57 nM | 0.022 s⁻¹ | 390000 M⁻¹ s⁻¹ |
| B20 | 691 nM | 0.12 s⁻¹ | 180000 M⁻¹ s⁻¹ |
